Reference: the supplement of paper PMC9170038

Tested on: MS2 coat protein
Assay: apparent KD of MS2 coat protein; higher = weaker reporter binding
Conditions: Eterna round: R107
Method in brief: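 In 100 mM Tris-HCl pH 7.5 with 80 mM KCl and 4 mM MgCl2, and without or with constant ligand, SNAP-549-labelled MS2 coat protein was titrated in twofold steps from 0.7 or 1.5 nM to 3 µM. Per-step times went from 0.8–1.5 h down to 10–20 min. The RNA switches were transcribed on-chip from Illumina sequencing clusters, and apparent KD is the per-design median of normalised cluster binding-curve fits.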

[1] = input ligand: theophylline 20 uM
[2] = input ligand: tryptophan 2.4 mM
[3] = input ligand: theophylline 2 mM

Row | Sequence | apparent KD of MS2 coat protein (input ligand: arginine 13.2 mM) [nM] | apparent KD of MS2 coat protein [1] [nM] | apparent KD of MS2 coat protein [2] [nM] | apparent KD of MS2 coat protein (input ligand: none) [nM] | apparent KD of MS2 coat protein [3] [nM]
1 | GAACAUGAGGAUCACCCAUGUUAAACAGAUACCAGUGAUAUAAUACACCCUUGGCAGCUGAAGCUGAAUAAUAAUUCCCUCAAGC [#21 SameState-TheophyllineA] | 13.4 | 17 | 10.5 |  | 
2 | GAAUAAAGUAGAACACAAGACUCCUGAGAAGGAGCGCAGUCAACUGCAGGUAGGUCGCUCAGGAACACAUGAGGAUCACCCAUGU [Disoonlate] | 16.9 | 30.4 | 23.9 | 26.6 | 32.3
3 | GAAUUUAUUUGAAGGAGCGUCGAAAAUGGGUAAACAUGAGGAUCACCCAUGUAAAGGGAACGACAGGUAGGUCGCAAAUGGAUUC [AstromonsSSArgB#27] | 126 | 259 | 188 | 206 | 224
4 | GACCCAUGAGUUGCAAAAGCUCAUGGGUCGCGAGGACCGGUACGGCCGCCACUCGGCUGUACAUGAGGAUCACCCAUGUCAGGGU [#1 Same State - Tryptophan A Attempt #26 (HarryS)] | 54.4 | 615 |  |  | 845
5 | GACUAACAUGAGGAUCACCCAUGUGAAGAUACCAGUAAUUUCACCUACCCUUGGCAGCUUUUUUUGAACGGCCUGAAUGCCUUGU [theeternabot_sameState_MS2_Theo_A_14] | 12.2 | 17.5 | 11.9 |  | 
6 | GACUCUGUCGGAAGGAGCGCAGAGCCGGUCUUCUACAUGAGGAUCACCCAUGUGCUGGUUAUGCAGGUAGGUCGCCGACGCGUGG [Ismatiza] | 17 | 40.2 | 24.6 | 27.1 | 27.2
7 | GACUGUAAAAUAUGACUCAGGGUGACGUCCCGAGGACCGGUACGGCCGCCACUCGAGCGAAUACAUGAGGAUCACCCAUGUAGUC [theeternabot_exclusion_MS2_Trp_A_15] | 20.5 | 61.5 | 54.6 | 45.4 | 81.2
8 | GAGCUCGUGGACUGGCGUGCUCCGCUCCGUCGAGGACCGGUACGGCCGCCACUCGACAUGAGGAUCACCCAUGUGUGAGCUCGCG [#1 Exclusion - Tryptophan A Attempt #20 (HarryS)] | 35.3 | 193 |  |  | 134
9 | GAGCUGAUGUAGAAAUUUUAUUUAUGAGAUACCAGUACAGAAAUGUACCCUUGGCAGCUCAAUUUUACAUGAGGAUCACCCAUGU [Ex Theophylline A 13] | 16.8 | 12.5 | 11.5 |  | 
10 | GAGCUGAUGUAGAGUGGAUAUCCUUGAGAUACCAGUACAGAAAUGUACCCUUGGCAGCUCUUCUUUACAUGAGGAUCACCCAUGU [Ex Theophylline A 24] | 12.8 | 14.3 | 12.5 |  | 
11 | GAGCUGAUGUAGGGCGGAUAUCCGUGAGAUACCAGUACAGAAAUGUACCCUUGGCAGCUCUUCCUUACAUGAGGAUCACCCAUGU [Ex Theophylline A 26] | 23.1 | 25.5 | 19.4 |  | 
12 | GAGGAAACUCACAUGAGGAUCACCCAUGUACGAGGACCGGUACGGCCGCCACUCGAAACCAUGGGCGGUUGUACAUGGAAACAUG [Design 2] | 21.4 | 33.3 |  |  | 34.9
13 | GAGUAAACUACGGCCGCCACUCAAGGAGAUCAAUAGAUCAUCGACAUGAGGAUCACCCAUGUAAAGAGGACCGGGUAGAUCCUUA [Same State Typrtophan B GF1] | 97.8 | 98.9 | 100 | 214 | 362
14 | GAGUAGAGGACGGCCGCCACUAAACAUGAGGAUCACCCAUGUCGUGAUCCGUUACCUAGAGUAGAUAGGACCGGGUCAUAUAGUC [Exclusion Tryptophan B GF 16] | 20.8 | 41.5 |  |  | 24.5
15 | GAGUCCGCGGCGGCCGCCACUCGCGAUAUAACAUGAUAUCAGGACAUGAGGAUCACCCAUGUCACGAGGACCGGGCCGAUCCUCA [Same State Typptophan B GF 5] | 17 | 49.2 |  |  | 35.8
16 | GAUACGCAGUCGGCCGCCACUUGCUAAGGUGACAAACCAAAACAUGAGGAUCACCCAUGUCUGAUAAGGACCGGGACCACCAUGG [theeternabot_sameState_MS2_Trp_B_14] | 69.7 | 124 |  |  | 129
